The target of this assay is His-Tagged FcRn (UniProt P55899). The assay is described as follows: SPR; His-tagged FcRn captured on an anti-His IgG1 antibody CM5 chip; antibody samples as analyte at 15, 5 and 1.66 nM in HBS-EP pH 6.0, 30 µL/min, 22 °C; steady-state model (the same data also fitted with a two-state model); mean of at least 5 measurements. Background: SPR reads the build-up and loss of mass on a sensor chip optically.

Values joined by “and” are separate entries in the source; they are usually repeats but may differ in a detail not shown here. Equal values may be shown once.

UniProt P55899, sequence (P55899 24-297): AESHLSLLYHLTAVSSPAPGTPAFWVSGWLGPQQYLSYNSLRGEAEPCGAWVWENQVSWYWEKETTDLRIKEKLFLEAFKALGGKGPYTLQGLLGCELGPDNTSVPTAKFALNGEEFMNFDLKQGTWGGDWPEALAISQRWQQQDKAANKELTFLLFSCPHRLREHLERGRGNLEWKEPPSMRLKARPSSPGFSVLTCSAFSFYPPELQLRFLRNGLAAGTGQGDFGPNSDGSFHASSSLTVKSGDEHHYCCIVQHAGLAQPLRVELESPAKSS

For the substance “Avastin (unfractionated innovator product) (antibody)”, the Kd (as a rule, the equilibrium constant for the complex coming apart) is 0.025 µM and 0.0227 µM.

The values above are taken from publication PMC9415858.
